In patent US20230287120A1 (ALLOGENE THERAPEUTICS, published 2023):
Changes are numbered by the printed parent chain. Values belong to the binder of their own block, whether it stands above or below them.

How the values were obtained:
[1] = biological target: T1, Flag tagged recombinant DLL3 (Adipogen) (Homo sapiens (Human), UniProt Q9NYJ7 27-492); assay: flow cytometry, percent of T cells that recognise recombinant DLL3, Donor 116
T1 construct: Bought reagent; also called Flag-DLL3
T1 sequence: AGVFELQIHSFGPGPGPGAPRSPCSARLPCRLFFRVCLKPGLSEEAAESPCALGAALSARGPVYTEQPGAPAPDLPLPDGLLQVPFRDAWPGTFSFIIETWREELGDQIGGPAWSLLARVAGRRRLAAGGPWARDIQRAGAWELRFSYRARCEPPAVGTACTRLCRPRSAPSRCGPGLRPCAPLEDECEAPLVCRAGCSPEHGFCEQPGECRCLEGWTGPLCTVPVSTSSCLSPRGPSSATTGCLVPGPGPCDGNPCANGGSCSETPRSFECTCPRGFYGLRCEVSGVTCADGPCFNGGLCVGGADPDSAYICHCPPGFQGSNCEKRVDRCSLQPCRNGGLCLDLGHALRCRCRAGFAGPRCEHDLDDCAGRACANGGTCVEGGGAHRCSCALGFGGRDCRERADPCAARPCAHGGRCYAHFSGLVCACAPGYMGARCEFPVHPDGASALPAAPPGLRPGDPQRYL
Method: (§1) To determine the percentage of T cells that were successfully transduced with DLL3 CAR, T cells were first incubated with 1 ug/ml Flag tagged recombinant DLL3 (Adipogen) in PBS+1% BSA for 20 minutes at 4 C.

[2] = biological target: T1, Flag tagged recombinant DLL3 (Adipogen); assay: flow cytometry, primary T cells with the CAR, 1 ug/ml Flag tagged recombinant DLL3, PE anti-Flag
Method: as §1

[3] = biological target: T1, Flag tagged recombinant DLL3 (Adipogen); assay: flow cytometry, percent of T cells that recognise recombinant DLL3, Donor 117
Method: as §1

[4] = biological target: T1, Flag tagged recombinant DLL3 (Adipogen); assay: flow cytometry, percent of T cells that recognise recombinant DLL3, Donor 419
Method: as §1

Transduction efficiency [1]: 42.2%
Rec-DLL3 gate, percent of live CD3+ cells [2]: 42.2%
Transduction efficiency [3]: 37.4%
B1: 7F9 (other)
CAR: EVQLVESGGGLVQPGGSLRLSCAASGFTFSSHDMHWVRQATGKGLEWVSAIGIAGDTYYSGSVKGRFTISRENAKNSLYLQMNSLRAGDTAVYYCARANWGEGAFDIWGQGTMVTVSSGGGGSGGGGSGGGGSGGGGSDIQMTQSPSSLSASVGDRVTITCRASQGISDYLAWYQQKPGKIPKLLIYAASTLQSGVPSRFSGSGSGTDFTLTISSLQPEDVATYYCQKYNSVPLTFGGGTKVEIKTTTPAPRPPTPAPTIASQPLSLRPEACRPAAGGAVHTRGLDFACDIYIWAPLAGTCGVLLLSLVITKRGRKKLLYIFKQPFMRPVQTTQEEDGCSCRFPEEEEGGCELRVKFSRSADAPAYQQGQNQLYNELNLGRREEYDVLDKRRGRDPEMGGKPRRKNPQEGLYNELQKDKMAEAYSEIGMKGERRRGKGHDGLYQGLSTATKDTYDALHMQALPPR
notes: also called anti-DLL3 CAR with 7F9 scFv, on primary T cells

Transduction efficiency [1]: 66.9%
Rec-DLL3 gate, percent of live CD3+ cells [2]: 69.1%
Transduction efficiency [4]: 49.1%
B2: 2G1 (other)
CAR: QLQLQESGPGLVKPSETLSLTCTVSGGSISSSSYYWGWIRQPPGKGLEWIGSIYYSGNIYHNPSLKSRVSISVDTSKNQFSLRLSSVTAADTAVYYCAREIIVGATHFDYWGQGTLVTVSSGGGGSGGGGSGGGGSGGGGSAIQMTQSPSSLSASVGDRVTITCRASQGIRNDLGWYQQKPGKAPELLIYAASSLQSGVPSRFSGSGSGTDFTLTISSLQPEDFATYYCLQDYNYPLTFGPGTKVDIKTTTPAPRPPTPAPTIASQPLSLRPEACRPAAGGAVHTRGLDFACDIYIWAPLAGTCGVLLLSLVITKRGRKKLLYIFKQPFMRPVQTTQEEDGCSCRFPEEEEGGCELRVKFSRSADAPAYQQGQNQLYNELNLGRREEYDVLDKRRGRDPEMGGKPRRKNPQEGLYNELQKDKMAEAYSEIGMKGERRRGKGHDGLYQGLSTATKDTYDALHMQALPPR
notes: also called anti-DLL3 CAR with 2G1 scFv, on primary T cells

Transduction efficiency [1]: 52.4%
Rec-DLL3 gate, percent of live CD3+ cells [2]: 52.4%
Transduction efficiency [3]: 50.8%
B3: 9D3 (other)
CAR: QVQLQESGPGLVKPSETLSLTCTVSDDSISNYYWSWIRQPPGKGLEWIGYIFYSGTTNHNPSLKSRLTISLDKAKNQFSLRLSSVTAADTAVYYCARVFNWGFAFDIWGQGTMVTVSSGGGGSGGGGSGGGGSGGGGSEIVLTQSPGTLSLSPGERATLSCRASQRISRTYLAWYQQKPGQAPRLLIYGASSRATGIPDRFTGSGSGTDFTLTISRLEPEDFAVYYCQQYGTSPLTFGGGTKVEINTTTPAPRPPTPAPTIASQPLSLRPEACRPAAGGAVHTRGLDFACDIYIWAPLAGTCGVLLLSLVITKRGRKKLLYIFKQPFMRPVQTTQEEDGCSCRFPEEEEGGCELRVKFSRSADAPAYQQGQNQLYNELNLGRREEYDVLDKRRGRDPEMGGKPRRKNPQEGLYNELQKDKMAEAYSEIGMKGERRRGKGHDGLYQGLSTATKDTYDALHMQALPPR
notes: also called anti-DLL3 CAR with 9D3 scFv, on primary T cells

Transduction efficiency [1]: 67.5%
Transduction efficiency [4]: 49.4%
B4: 4F9 (other)
CAR: QVQLQQWGAGLLKPSETLSLTCAVYGGSFSGYYWTWIRQPPGKGLEWIGEITHSGSTNYNPSLKSRVSISVDTSKNQFSLKLSSVTAADTAVYYCARGEYGSGSRFDYWGQGTLVTVSSGGGGSGGGGSGGGGSGGGGSAIQMTQSPSSLSASVGDRVAITCRASQGIRDDLGWYQQKPGKAPKLLIYAASSLQSGVPSRFSGSGSDTDFTLTISSLQPEDFATYYCLQDYDYPLTFGGGTKVEIKTTTPAPRPPTPAPTIASQPLSLRPEACRPAAGGAVHTRGLDFACDIYIWAPLAGTCGVLLLSLVITKRGRKKLLYIFKQPFMRPVQTTQEEDGCSCRFPEEEEGGCELRVKFSRSADAPAYQQGQNQLYNELNLGRREEYDVLDKRRGRDPEMGGKPRRKNPQEGLYNELQKDKMAEAYSEIGMKGERRRGKGHDGLYQGLSTATKDTYDALHMQALPPR
notes: also called anti-DLL3 CAR with 4F9 scFv, on primary T cells

Transduction efficiency [1]: 58.3%
Transduction efficiency [4]: 46.4%
B5: 3E4 (other)
CAR: B4 CAR with T35S, T52I, T57S, A96S, G205R
notes: also called anti-DLL3 CAR with 3E4 scFv, on primary T cells

Transduction efficiency [1]: 48.9%
Transduction efficiency [4]: 35.2%
B6: 4G9 (other)
CAR: B4 CAR with T35S, I160L
notes: also called anti-DLL3 CAR with 4G9 scFv, on primary T cells

Transduction efficiency [1]: 5.81%
Transduction efficiency [4]: 2.7%
B7: 6H1 (other)
CAR: QITLRESGPTLVKPTQTLTLTCTFSGFSLSTSGLGVGWIRQPPGEALEWLALIYWNDDKRYSPSLKSRLSITKDTSKNQVVLIMTNMDPVDTATYYCVHRRIAAPGSVYWGQGTLVTVSSGGGGSGGGGSGGGGSGGGGSDIQMTQSPSSVSASVGDRVTITCRASQGISSWLAWYQQKPGKAPKLLISAASSLQSGVPSRFSGSGSGTDFTLTISSLQPEDFATYYCHQANSFPFTFGQGTKLEIKTTTPAPRPPTPAPTIASQPLSLRPEACRPAAGGAVHTRGLDFACDIYIWAPLAGTCGVLLLSLVITKRGRKKLLYIFKQPFMRPVQTTQEEDGCSCRFPEEEEGGCELRVKFSRSADAPAYQQGQNQLYNELNLGRREEYDVLDKRRGRDPEMGGKPRRKNPQEGLYNELQKDKMAEAYSEIGMKGERRRGKGHDGLYQGLSTATKDTYDALHMQALPPR
notes: also called anti-DLL3 CAR with 6H1 scFv, on primary T cells

Transduction efficiency [1]: 48.9%
Rec-DLL3 gate, percent of live CD3+ cells [2]: 48.9%
Transduction efficiency [3]: 46.9%
B8: 26C8 (other)
CAR: QVQLQESGPGLVKPSETLSLTCTVSDNSISNYYWSWIRQPPGKGLEWIAYIYYSGTTNYNPSLKSRVTISLDTSKNQFSLQLSSVTAADAAVYYCARVFHWGFAFDIWGQGTMVTVSSGGGGSGGGGSGGGGSGGGGSEIVLTQSPGTLSLSPGERATLSCRASQRVSNTYLAWYQQNPGQAPRLLIYGASSRATGIPDRFSGSGSGTDFTLTISRLEPEDFAVYYCQQYGTSPLTFGGGTKVEIKTTTPAPRPPTPAPTIASQPLSLRPEACRPAAGGAVHTRGLDFACDIYIWAPLAGTCGVLLLSLVITKRGRKKLLYIFKQPFMRPVQTTQEEDGCSCRFPEEEEGGCELRVKFSRSADAPAYQQGQNQLYNELNLGRREEYDVLDKRRGRDPEMGGKPRRKNPQEGLYNELQKDKMAEAYSEIGMKGERRRGKGHDGLYQGLSTATKDTYDALHMQALPPR
notes: also called anti-DLL3 CAR with 26C8 scFv, on primary T cells

Transduction efficiency [1]: 16.3%
Rec-DLL3 gate, percent of live CD3+ cells [2]: 58%
Transduction efficiency [4]: 12.2%
B9: 3F2 (other)
CAR: QVQLQESGPGLVKPSGTLSLTCAVSGGSISSNNWWSWVRQPPGKGLEWIGDIHHSGSTNYKPSLKSRVTISVDKSKNQFSLNLISVTAADTAVYYCAREAGGYFDYWGQGILVTVSSGGGGSGGGGSGGGGSGGGGSDIQMTQSPSTLSASVGDRVTITCRASQSISSWLAWYQQKPGKAPKLLISKASSLESGVPSRFSGSGSGPEFTLTISSLQPADFATYYCQQYNSYSTFGQGTKLEIKTTTPAPRPPTPAPTIASQPLSLRPEACRPAAGGAVHTRGLDFACDIYIWAPLAGTCGVLLLSLVITKRGRKKLLYIFKQPFMRPVQTTQEEDGCSCRFPEEEEGGCELRVKFSRSADAPAYQQGQNQLYNELNLGRREEYDVLDKRRGRDPEMGGKPRRKNPQEGLYNELQKDKMAEAYSEIGMKGERRRGKGHDGLYQGLSTATKDTYDALHMQALPPR
notes: also called anti-DLL3 CAR with 3F2 scFv, on primary T cells

Transduction efficiency [1]: 39.1%
Rec-DLL3 gate, percent of live CD3+ cells [2]: 39.1%
Transduction efficiency [3]: 41.4%
B10: 8E11 (other)
CAR: QVQLQESGPGLVKPSETLSLTCTVSGDSISNYYWTWIRQPPGKGLEWIGYIYYSGTTNSNPSLKSRVTVSLDTSKSQFSLNLSSVTAADTAVYYCARVFNRGFAFDIWGQGTMVTVSSGGGGSGGGGSGGGGSGGGGSEIVLTQSPGTLSLSPGERATLSCRASQRISNTYLAWYQQKPGQAPRLLIYGASSRATGIPDRFSGSGSGTDFTLTISRLEPEDFAAYYCQQYDTSPLTFGGGTKVEIKTTTPAPRPPTPAPTIASQPLSLRPEACRPAAGGAVHTRGLDFACDIYIWAPLAGTCGVLLLSLVITKRGRKKLLYIFKQPFMRPVQTTQEEDGCSCRFPEEEEGGCELRVKFSRSADAPAYQQGQNQLYNELNLGRREEYDVLDKRRGRDPEMGGKPRRKNPQEGLYNELQKDKMAEAYSEIGMKGERRRGKGHDGLYQGLSTATKDTYDALHMQALPPR
notes: also called anti-DLL3 CAR with 8E11 scFv, on primary T cells

Transduction efficiency [1]: 52.4%
Transduction efficiency [4]: 40.2%
B11: 11H7 (other)
CAR: QVQLQQWGAGLLKPSETLSLTCAVYGGSFSAYYWNWIRQPPGKGLEWIGEINHSGSTNYNPSLKSRVTISVDTSKNQFSLNLTSLTAADTAVYYCARGLDSSGWYPFDYWGQGTLVTVSSGGGGSGGGGSGGGGSGGGGSDIQMTQSPSSVSASVGDRVTITCRASQGISSWLAWYQQKPGKAPKLLIYAASSLQSGVPSRFSGSGSGTDFTLTISSLQPEDFATYYCQQADSFPFTFGPGTKVDIKTTTPAPRPPTPAPTIASQPLSLRPEACRPAAGGAVHTRGLDFACDIYIWAPLAGTCGVLLLSLVITKRGRKKLLYIFKQPFMRPVQTTQEEDGCSCRFPEEEEGGCELRVKFSRSADAPAYQQGQNQLYNELNLGRREEYDVLDKRRGRDPEMGGKPRRKNPQEGLYNELQKDKMAEAYSEIGMKGERRRGKGHDGLYQGLSTATKDTYDALHMQALPPR
notes: also called anti-DLL3 CAR with 11H7 scFv, on primary T cells
